Experimental data from US7867500B2, “Cofactor that modulates steroid receptor activities” (The United States of America as represented by the …, priority 2004, dated 2011).

Legend:
p300 = target: T1, p300 (Homo sapiens, UniProt Q09472); assay: Mammalian two-hybrid assay with p300; format: cell-based; details: data not shown
T1 construct: expressed in transfected cells; host or cells: CV-1 (the same two-hybrid assay)
Experimental: These assays were conducted as described (He et al., 2002). In particular, the recommended procedure for the Mammalian Matchmaker two-hybrid assay kit (Clontech) was modified slightly by changing from a chloramphenicol acetyltransferase reporter to a Luciferase Reporter pFRLuc (Stratagene), which is under the control of five repeats of the upstream activating sequence for the binding of GAL4.

[1] = target: T2, thyroid (TR) (β) receptor (Homo sapiens, UniProt P10828); assay: Mammalian two-hybrid assay with VP16 full length receptor: TRβ; format: cell-based; details: 0.1 μM triiodothyronine
T2 construct: plus VP16 fused to the indicated full length receptors; expressed in transfected cells; host or cells: CV-1
T2 sequence (P10828 1-461): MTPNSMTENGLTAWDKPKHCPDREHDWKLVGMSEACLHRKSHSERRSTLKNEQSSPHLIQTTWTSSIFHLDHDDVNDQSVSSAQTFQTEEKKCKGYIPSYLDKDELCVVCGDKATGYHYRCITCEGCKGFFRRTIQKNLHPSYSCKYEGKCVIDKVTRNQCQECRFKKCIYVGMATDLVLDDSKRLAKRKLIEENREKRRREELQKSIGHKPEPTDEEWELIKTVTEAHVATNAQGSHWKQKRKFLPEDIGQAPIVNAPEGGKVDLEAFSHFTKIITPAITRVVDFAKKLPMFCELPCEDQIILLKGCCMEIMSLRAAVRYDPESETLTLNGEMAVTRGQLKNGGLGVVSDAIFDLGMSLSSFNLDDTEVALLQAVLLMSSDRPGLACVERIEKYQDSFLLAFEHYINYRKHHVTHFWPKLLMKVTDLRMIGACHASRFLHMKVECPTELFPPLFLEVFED
Experimental: FIG. 6C1-3 illustrate the association of STAMP with assorted steroid/nuclear receptors, including glucocorticoid receptors (GRs), progesterone receptors (PRs), androgen receptors (ARs), estrogen receptors (ER α or β), PPARγ2 receptors, thyroid receptor beta (TR), and retinoid (α) receptors (RAR α or RXR α). Triplicate samples of CV-1 cells were transfected (as described for FIG. 6B) with GAL, or GAL fused to TIF2.4 or STAMP834C, plus VP16 fused to the indicated full length receptors and incubated with the appropriate steroid (1 μM Dex, 20 nM R5020, 1 nM R1881, 0.1 μM triiodothyronine, or 1 μM estradiol, roziglitazone, or 9-cis-retinoic acid). The average relative luciferase activities of 2-3 experiments±S.E.M. were then plotted. FIG. 6C1 illustrates the effects of STAMP association upon GR, PR and AR induced expression. FIG. 6C2 illustrates the effects of STAMP association upon ERα, ERβ and PPARγ2 induced expression. FIG. 6C3 illustrates the effects of STAMP association upon TR, RARα and RXRα induced expression.
These assays were conducted as described (He et al., 2002). […]

GRIP1 = target: T3, GRIP1 (Mus musculus, UniProt Q61026); assay: Whole cell co-immunoprecipitation in Cos-7 cells: HA-GRIP1; format: binding; details: EtOH ± 1 μM Dex, 2 hr
T3 construct: expressed in transfected cells; host or cells: Cos-7
T3 sequence (Q61026 5-1462 limits assumed, one chain of several): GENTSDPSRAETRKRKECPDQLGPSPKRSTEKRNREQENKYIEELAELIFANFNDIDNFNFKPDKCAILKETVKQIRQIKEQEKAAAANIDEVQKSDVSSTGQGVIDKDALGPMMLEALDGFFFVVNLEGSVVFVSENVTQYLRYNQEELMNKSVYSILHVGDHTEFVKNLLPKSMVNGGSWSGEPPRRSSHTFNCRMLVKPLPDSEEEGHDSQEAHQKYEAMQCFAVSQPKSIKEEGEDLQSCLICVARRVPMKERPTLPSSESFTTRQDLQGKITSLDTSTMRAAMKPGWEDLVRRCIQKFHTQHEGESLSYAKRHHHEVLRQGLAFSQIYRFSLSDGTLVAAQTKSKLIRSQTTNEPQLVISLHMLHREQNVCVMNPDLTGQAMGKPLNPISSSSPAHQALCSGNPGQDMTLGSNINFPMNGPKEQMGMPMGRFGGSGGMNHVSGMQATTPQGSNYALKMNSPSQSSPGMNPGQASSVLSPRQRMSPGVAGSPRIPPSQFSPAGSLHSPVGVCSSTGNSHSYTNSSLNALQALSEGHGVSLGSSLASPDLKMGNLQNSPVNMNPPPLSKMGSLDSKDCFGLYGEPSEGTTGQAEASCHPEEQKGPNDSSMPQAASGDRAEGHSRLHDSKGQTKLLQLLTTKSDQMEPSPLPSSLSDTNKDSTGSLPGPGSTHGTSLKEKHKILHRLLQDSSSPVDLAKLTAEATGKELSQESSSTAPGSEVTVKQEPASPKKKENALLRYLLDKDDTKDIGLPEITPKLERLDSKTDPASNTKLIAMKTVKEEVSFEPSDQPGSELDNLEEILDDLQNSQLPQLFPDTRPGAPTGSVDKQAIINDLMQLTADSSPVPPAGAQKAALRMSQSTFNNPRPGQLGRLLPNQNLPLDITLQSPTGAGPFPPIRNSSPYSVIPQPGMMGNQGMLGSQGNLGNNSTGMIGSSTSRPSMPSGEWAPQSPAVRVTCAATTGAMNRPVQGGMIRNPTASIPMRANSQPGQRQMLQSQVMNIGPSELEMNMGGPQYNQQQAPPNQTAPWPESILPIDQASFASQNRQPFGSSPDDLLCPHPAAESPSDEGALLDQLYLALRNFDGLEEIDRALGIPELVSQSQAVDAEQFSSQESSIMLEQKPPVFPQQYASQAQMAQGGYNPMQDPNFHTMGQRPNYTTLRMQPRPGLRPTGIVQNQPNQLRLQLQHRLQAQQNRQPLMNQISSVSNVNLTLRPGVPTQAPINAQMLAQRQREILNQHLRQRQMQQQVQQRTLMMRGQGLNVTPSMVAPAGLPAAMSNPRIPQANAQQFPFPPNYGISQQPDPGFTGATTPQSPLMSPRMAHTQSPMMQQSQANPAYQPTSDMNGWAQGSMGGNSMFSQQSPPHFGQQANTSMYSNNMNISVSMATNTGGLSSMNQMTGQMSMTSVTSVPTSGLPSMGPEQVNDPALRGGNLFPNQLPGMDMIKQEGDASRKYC
Experimental: FIG. 7C1-3 illustrate whole cell co-immunoprecipitation of STAMP, GR, and TIF2/GRIP1. Cos-7 cells that had been co-transfected with Flag/STAMP (or Flag itself), HA/GRIP1, and GR plasmids (10 μg of each/150 mm dish) for 48 hr were treated for 2 hr with EtOH±1 μM Dex before being lysed as described in Example 1. Lysate was either analyzed on SDS-PAGE gels or treated with anti-Flag antibody to immunoprecipitate Flag/STAMP. The pellets were separated on SDS-PAGE gels and Western blotted with anti-Flag (FIG. 7C1), anti-HA (FIG. 7C2), or anti-GR antibodies (FIG. 7C3). In each panel, lane 1=5.7% of input lysate, lane 2=IP pellet of Flag/STAMP, HA/GRIP1, and GR+EtOH, lane 3=IP pellet of Flag/STAMP, HA/GRIP1, and GR+Dex, and lane 4=control IP pellet of Flag, HA/GRIP1, and GR+EtOH. Similar results were obtained in a second experiment.
Immunoprecipitations were conducted as generally described in Wang et al. (2004) Mol. Endocrinol. 18: 1476-95, with slight modifications. The day before transfection, Cos-7 cells were seeded into 150 mm dishes at 200,000 cells per dish containing 20 ml of media. On the next day, about 30 μg of DNA/dish was transfected with 60 μl of FuGene reagent. […]

T1 sequence (Q09472 whole entry, species assumed): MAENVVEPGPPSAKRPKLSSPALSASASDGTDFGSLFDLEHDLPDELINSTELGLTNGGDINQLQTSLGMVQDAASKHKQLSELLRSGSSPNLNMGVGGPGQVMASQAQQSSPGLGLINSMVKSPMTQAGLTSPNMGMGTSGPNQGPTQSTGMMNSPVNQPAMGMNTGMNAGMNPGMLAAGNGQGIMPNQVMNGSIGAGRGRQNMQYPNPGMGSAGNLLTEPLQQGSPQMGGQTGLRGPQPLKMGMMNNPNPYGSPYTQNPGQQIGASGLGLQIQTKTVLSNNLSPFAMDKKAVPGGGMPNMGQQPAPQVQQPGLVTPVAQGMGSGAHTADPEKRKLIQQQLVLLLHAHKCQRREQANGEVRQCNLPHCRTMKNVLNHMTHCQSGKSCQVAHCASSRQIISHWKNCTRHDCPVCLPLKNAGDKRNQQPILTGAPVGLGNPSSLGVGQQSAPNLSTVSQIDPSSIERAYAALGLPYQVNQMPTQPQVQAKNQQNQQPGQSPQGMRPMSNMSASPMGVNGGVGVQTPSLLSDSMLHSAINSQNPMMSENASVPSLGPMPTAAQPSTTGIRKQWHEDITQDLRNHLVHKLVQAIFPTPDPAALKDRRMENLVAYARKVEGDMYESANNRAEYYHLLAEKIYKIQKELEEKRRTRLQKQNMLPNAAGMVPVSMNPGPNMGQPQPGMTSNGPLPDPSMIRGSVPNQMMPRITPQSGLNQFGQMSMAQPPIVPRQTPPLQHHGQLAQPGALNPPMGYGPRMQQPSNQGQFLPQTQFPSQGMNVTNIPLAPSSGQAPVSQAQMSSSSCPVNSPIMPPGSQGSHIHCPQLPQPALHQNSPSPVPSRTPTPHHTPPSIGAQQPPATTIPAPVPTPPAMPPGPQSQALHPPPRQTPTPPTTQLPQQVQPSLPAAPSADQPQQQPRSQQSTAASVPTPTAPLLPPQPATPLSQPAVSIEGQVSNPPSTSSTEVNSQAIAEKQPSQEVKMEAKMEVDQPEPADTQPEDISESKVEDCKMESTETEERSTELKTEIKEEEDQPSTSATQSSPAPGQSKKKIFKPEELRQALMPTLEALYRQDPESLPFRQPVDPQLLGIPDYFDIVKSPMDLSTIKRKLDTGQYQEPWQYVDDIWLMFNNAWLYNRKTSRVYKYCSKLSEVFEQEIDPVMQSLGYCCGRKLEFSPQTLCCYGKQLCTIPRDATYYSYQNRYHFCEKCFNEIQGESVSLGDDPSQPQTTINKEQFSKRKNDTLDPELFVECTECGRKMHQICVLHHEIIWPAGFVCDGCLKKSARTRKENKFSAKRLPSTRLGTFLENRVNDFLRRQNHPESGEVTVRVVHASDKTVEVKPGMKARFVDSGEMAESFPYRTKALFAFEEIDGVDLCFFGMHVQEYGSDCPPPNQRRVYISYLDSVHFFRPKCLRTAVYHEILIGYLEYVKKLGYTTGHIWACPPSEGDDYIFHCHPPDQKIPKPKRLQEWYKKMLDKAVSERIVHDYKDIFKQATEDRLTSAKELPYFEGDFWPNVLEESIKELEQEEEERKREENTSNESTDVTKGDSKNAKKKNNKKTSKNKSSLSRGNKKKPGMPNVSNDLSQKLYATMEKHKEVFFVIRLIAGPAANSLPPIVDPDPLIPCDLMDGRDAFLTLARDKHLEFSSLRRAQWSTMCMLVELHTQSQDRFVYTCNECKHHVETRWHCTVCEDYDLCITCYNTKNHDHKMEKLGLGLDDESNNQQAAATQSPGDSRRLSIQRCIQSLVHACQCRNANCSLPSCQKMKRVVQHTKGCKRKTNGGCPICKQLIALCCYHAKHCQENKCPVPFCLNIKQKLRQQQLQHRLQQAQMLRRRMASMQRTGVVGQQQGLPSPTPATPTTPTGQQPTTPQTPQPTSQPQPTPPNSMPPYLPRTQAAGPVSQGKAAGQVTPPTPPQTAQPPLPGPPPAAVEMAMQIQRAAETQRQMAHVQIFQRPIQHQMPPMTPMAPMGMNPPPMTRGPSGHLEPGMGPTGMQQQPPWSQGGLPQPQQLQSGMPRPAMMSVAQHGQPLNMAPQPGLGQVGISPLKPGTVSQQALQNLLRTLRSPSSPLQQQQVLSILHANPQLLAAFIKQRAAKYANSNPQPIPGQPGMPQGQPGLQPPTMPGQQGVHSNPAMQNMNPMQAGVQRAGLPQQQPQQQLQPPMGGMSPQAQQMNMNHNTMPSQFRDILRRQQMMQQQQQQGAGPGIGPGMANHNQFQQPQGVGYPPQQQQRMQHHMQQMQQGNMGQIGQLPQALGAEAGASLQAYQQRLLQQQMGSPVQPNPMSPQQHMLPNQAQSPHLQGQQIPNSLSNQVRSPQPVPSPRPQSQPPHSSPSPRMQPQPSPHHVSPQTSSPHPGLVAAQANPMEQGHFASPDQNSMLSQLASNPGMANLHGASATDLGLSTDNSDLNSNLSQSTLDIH

B1: 6-6CL1: STAMP fragment amino acids 623-834, coactivator interaction domain (CID) (protein)
chain: ENTPKENSMKVREWNNKGGHCCKLETQELEPKFNLMQILQDNGNLSKMQARIAFSAYLQHVQIRLMKDSGGQTFSASWAAKEDEQMELVVRFLKRASNNLQHSLRMVLPSRRLALLERRRILAHQLGDFIIVYNKETEQMAEKKSKKKVEEEEEDGVNMENFQEFIRQASEAELEEVLTFYTQKNKSASVFLGTHSKISKNNNNYSDSGAKG
**Q.** How did the “association with p300” value (p300) turn out when B1 was run?
**A.** negligible association

B2: STAMP834C: STAMP fragment amino acids 834-1277, receptor interaction domain (RID) (protein)
chain: GDHPETIMEEVKIKPPKQQQTTEIHSDKLSRFTTSAEKEAKLVYSNSSSGPTATLQKIPNTHLSSVTTSDLSPGPCHHSSLSQIPSAIPSMPHQPTILLNTVSASASPCLHPGAQNIPSPTGLPRCRSGSHTIGPFSSFQSAAHIYSQKLSRPSSAKAGSCYLNKHHSGIAKTQKEGEDASLYSKRYNQSMVTAELQRLAEKQAARQYSPSSHINLLTQQVTNLNLATGIINRSSASAPPTLRPIISPSGPTWSTQSDPQAPENHSSSPGSRSLQTGGFAWEGEVENNVYSQATGVVPQHKYHPTAGSYQLQFALQQLEQQKLQSRQLLDQSRARHQAIFGSQTLPNSNLWTMNNGAGCRISSATASGQKPTTLPQKVVPPPSSCASLVPKPPPNHEQVLRRATSQKASKGSSAEGQLNGLQSSLNPAASVPITSSTDPAHTKI
**Q.** B2 was tested. Which “interaction with thyroid receptor β” value [1] did it give?
**A.** lack of interaction

B3: STAMP: SRC-1 and TIF2 Associated Modulatory Protein, 1277 amino acid human polypeptide, expressed from transfected plasmid (protein)
chain: MARDLEETASSSEDEEVISQEDHPCIMWTGGCRRIPVLVFHADAILTKDNNIRVIGERYHLSYKIVRTDSRLVRSILTAHGFHEVHPSSTDYNLMWTGSHLKPFLLRTLSEAQKVNHFPRSYELTRKDRLYKNIIRMQHTHGFKVFHILPQTFLLPAEYAEFCNSYSKDRGPWIVKPVASSRGRGVYLINNPNQISLEENILVSRYINNPLLIDDFKFDVRLYVLVTSYDPLVIYLYEEGLARFATVRYDQGAKNIRNQFMHLTNYSVNKKSGDYVSCDDPEVEDYGNKWSMSAMLRYLKQEGRDTTALMAHVEDLIIKTIISAELAIATACKTFVPHRSSCFELYGFDVLIDSTLKPWLLEVNLSPSLACDAPLDLKIKASMISDMFTVVGFVCQDPAQRASTRPIYPTFESSRRNPFQKPQRCRPLSASDAEMKNLVGSAREKGPGKLGGSVLGLSMEEIKVLRRVKEENDRRGGFIRIFPTSETWEIYGSYLEHKTSMNYMLATRLFQDRMTADGAPELKIESLNSKAKLHAALYERKLLSLEVRKRRRRSSRLRAMRPKYPVITQPAEMNVKTETESEEEEEVALDNEDEEQEASQEESAGFLRENQAKYTPSLTALVENTPKENSMKVREWNNKGGHCCKLETQELEPKFNLMQILQDNGNLSKMQARIAFSAYLQHVQIRLMKDSGGQTFSASWAAKEDEQMELVVRFLKRASNNLQHSLRMVLPSRRLALLERRRILAHQLGDFIIVYNKETEQMAEKKSKKKVEEEEEDGVNMENFQEFIRQASEAELEEVLTFYTQKNKSASVFLGTHSKISKNNNNYSDSGAKGDHPETIMEEVKIKPPKQQQTTEIHSDKLSRFTTSAEKEAKLVYSNSSSGPTATLQKIPNTHLSSVTTSDLSPGPCHHSSLSQIPSAIPSMPHQPTILLNTVSASASPCLHPGAQNIPSPTGLPRCRSGSHTIGPFSSFQSAAHIYSQKLSRPSSAKAGSCYLNKHHSGIAKTQKEGEDASLYSKRYNQSMVTAELQRLAEKQAARQYSPSSHINLLTQQVTNLNLATGIINRSSASAPPTLRPIISPSGPTWSTQSDPQAPENHSSSPGSRSLQTGGFAWEGEVENNVYSQATGVVPQHKYHPTAGSYQLQFALQQLEQQKLQSRQLLDQSRARHQAIFGSQTLPNSNLWTMNNGAGCRISSATASGQKPTTLPQKVVPPPSSCASLVPKPPPNHEQVLRRATSQKASKGSSAEGQLNGLQSSLNPAASVPITSSTDPAHTKI
**Q.** How did the “co-immunoprecipitation of GRIP1 with Flag-STAMP by anti-Flag antibody” value (GRIP1) turn out when B3 was run?
**A.** co-immunoprecipitated
